From patent US20170198050A1 (INHIBRX, published 2017)

Tests used:
[1] = target: T1, recombinant human 41BB-mFc fusion protein (human, UniProt Q07011 24-186); assay: ELISA, recombinant 41BB-mFc immobilized on Medisorp plate
T1 construct: A fusion protein containing 41BB operably linked to a mouse Fc region
Method: Binding was assessed by ELISA wherein recombinant 41BB-mFc protein was immobilized on a Medisorp 96 well plate.
(§1) The 41BB-targeting single domain antibodies (sdAbs) referred to herein as 1G3 (SEQ ID NO: 432), 1H4 (SEQ ID NO: 436), 1H1 (SEQ ID NO: 440), 4H4 (SEQ ID NO: 16), 1H8 (SEQ ID NO: 444), 4F5 (SEQ ID NO: 23), and 4E1 (SEQ ID NO: 20) bind recombinant human 41BB (FIG. 2A), cynomolgus 41BB (FIG. 2B). The 41BB-targeting single domain antibodies (sdAbs) referred to herein as 4F5 (SEQ ID NO: 23), 4H04 (SEQ ID NO: 16), 4E01 (SEQ ID NO: 20), RH03 (SEQ ID NO: 25), and D1 (SEQ ID NO: 29) bind human 41BB expressed on the cell surface of CHO cells (FIG. 3). The 41BB-targeting sdAbs referred to herein as 4H04, RH03, and […]. For FIG. 2A, FIG. 2B, and FIG. 4, binding was assessed by ELISA wherein recombinant 41BB-mFc fusion protein (a fusion protein containing 41BB operably linked to a mouse Fc region) was immobilized on a Medisorp 96 well plate. For FIG. 3, binding was assessed by flow cytometry using 41BB expressing CHO cells, and the data is presented as median fluorescence intensity.

[2] = target: T2, human 41BB expressed on the cell surface (human, UniProt Q07011 24-255); assay: flow cytometry on 41BB expressing CHO cells
T2 construct: whole, on cells; also called human 41BB on CHO cells; human 41BB on 293freestyle cells
Source text: as §1

[3] = target: T2, human 41BB expressed on the cell surface; assay: flow cytometry on 41BB expressing 293freestyle cells
Method: The PDL1-41BB targeting fusion proteins of the disclosure include a humanized anti-41BB sequence. In the studies presented herein, the PDL1-41BB targeting fusion proteins of the disclosure include a humanized anti-41BB sequence such as hzRH3v5-1 (SEQ ID NO: 30) and/or hzRH3v9 (SEQ ID NO: 82) bind both human and cynomolgus 41BB (FIGS. 9A, 9B), including human 41BB and cynomolgus 41BB expressed on the surface of CHO cells (FIGS. 9C, 9D). Binding was assessed by flow cytometry on 41BB expressing 293freestyle cells.

T2 sequence (Q07011 24-255): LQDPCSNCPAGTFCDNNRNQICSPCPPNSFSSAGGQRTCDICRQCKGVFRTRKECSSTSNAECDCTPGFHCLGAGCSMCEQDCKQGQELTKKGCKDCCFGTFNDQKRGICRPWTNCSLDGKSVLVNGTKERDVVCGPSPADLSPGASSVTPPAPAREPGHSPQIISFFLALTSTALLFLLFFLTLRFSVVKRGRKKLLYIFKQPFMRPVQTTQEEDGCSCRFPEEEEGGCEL

Binder	binding result [1]	binding result [2]	binding result [3]
1H1 (VHH, also called 41BB-targeting single domain antibody 1H1) VHH: QVQLVQSGGGLVQPGGSLRLSCAASGFTFDDHAMSWVRQAPGKGLEWVSAISWNGHYTYYAESMKGRFAISRDNAKNTLYLQMNSLKSEDTAVYYCVKGWRGSYTRDRPFASWGQGTQV	binds	–	–
1G3 (VHH, also called 41BB-targeting single domain antibody 1G3) VHH: QVQLVQSGGGLVQPGGSLRLSCAASGFTFSSYAMSWVRQAPGKGLEWVSAIPAGDGSTKYADSVKGRFTISRDNAKNTVYLQMDSLKPEDTAVYFCAKSRGWSTVDDMDYWGKGTQV	binds	–	–
4H04 (VHH, also called 4H4) VHH: QVQLQESGGGLVQAGDSLRLSCAASGWAFDNYGMAWFRQAPGKEREFIGRLAWNGGSTDYADSVKGRFTISRDNPKNTLYLQMNNLKPEDTAVYYCARQRSYSGYGIRTPQTYDYWGQGTQVT	binds	binds	–
4F5 (VHH, also called 4F05) VHH: QVQLVQSGGGLVQPGGSLRLSCAASGWAFDNYGMAWFRQAPGKEREFIGRLAWNGGSTDYADSVKGRFTISRDNPKNTLYLQMNSLKPEDTAVYYCARQRSYSRYGIRAPQTYDYWGQGTQVT	binds	binds	–
4E01 (VHH, also called 4E1) VHH: QVQLQQSGGGLVQAGDSLRLSCAASGWAFGNYGMAWFRRAPGKEREFIGRLAWNGGSTDYVDSVKGRFTISRDNPKNTLYLQMNNLKPDDTAVYYCARQRSYSRYDIRTPQTYDYWGQGTQVT	binds	binds	–
1H4 (VHH, also called 41BB-targeting single domain antibody 1H4) VHH: QVQLVQSGGGLVQPGGSLRLSCVVSGFTFRSYAMSWVRQAPGKGLEWVSTINSGESSTKYADSVKGRFTISRDDAKNTLYLQMSDLKPEDTAVYFCAKHRGWSTVDDINYWGKGTQV	binds	–	–
1H8 (VHH, also called 41BB-targeting single domain antibody 1H8) VHH: EVQLVQSGGGLVQPGGSLRLSCAASGFTFSSYYMSWVRQAPGKGLEWVSTISTNTGGGSTYYAYADSVKGRFTISRDNAKNTLYLEMNSLKPEDTAQYYCVRTRWEGVYDYWGLGTQV	binds	–	–
D1 (VHH, also called 41BB-targeting single domain antibody D1) VHH: EVQPVQSGGGLVQAGESLRLSCAASATIFSNNAMGWYRQAPGKQRELVATITTGGFTNYRDSVKGRFDISRDNAKNTVYLQMNNLKPEDTAVYYCNVVLRYSRDYSYTTVKEYWGQGTQV	–	binds	–
hzRH3v5-1 (VHH) VHH: EVQLLESGGGEVQPGGSLRLSCAASGFSFSINAMGWYRQAPGKRREFVAAIESGRNTVYAESVKGRFTISRDNAKNTVYLQMSSLRAEDTAVYYCGLLKGNRVVSPSVAYWGQGTLVTVKP	–	–	binds
hzRH3v9 (VHH) VHH: EVQLLESGGGEVQPGGSLRLSCAASGFSFSINAMGWYRQAPGKGREFVAAIESGRNTVYAESVKGRFTISRDNAKNTVYLQMSSLRAEDTAVYYCGLLKGNRVVSPSVAYWGQGTLVTVKP	–	–	binds
RH3 (VHH, also called RH03) VHH: QVQLQESGGGLVQPGGSLRLSCAVSGFSFSINAMGWYRQAPGKRREFLAAIDSGRNTVYAVSVKGRFTISRDNAKNTVYLQMNSLKPEDTAIYYCGLLKGNRVVSPSVAYWGQGTQVT	–	binds	–
